Test results from publication PMC8219104 (Research Square, 2021).

Biological target: SARS-CoV-2 spike receptor-binding domain (RBD), amino acids 333 to 529, bacteria-expressed and refolded (SARS-CoV-2, wild type (parental), UniProt P0DTC2)
Test: SPR
Conditions: both partners purified

B1: Sybody Sb68 (VHH)
VHH: QVQLVESGGGSVQAGGSLRLSCAASGSISSITYLGWFRQAPGKEREGVAALITVNGHTYYADSVKGRFTVSLDNAKNTVYLQMNSLKPEDTALYYCAAAAWGYAWPLHQDDYWYWGQGTQVTVSA
Kd: 63 nM
